Experimental data as given in publication PMC4569318 (Molecular Biology of the Cell, 2015).
Residue numbers refer to the chain shown, from its start. One block for each binder: values may come before it.

Tests used:
Sro7-D361K = target: T1, Sro7-D361K (S. cerevisiae, UniProt Q12038 1-1033, D361K); test: pull-down
T1 sequence: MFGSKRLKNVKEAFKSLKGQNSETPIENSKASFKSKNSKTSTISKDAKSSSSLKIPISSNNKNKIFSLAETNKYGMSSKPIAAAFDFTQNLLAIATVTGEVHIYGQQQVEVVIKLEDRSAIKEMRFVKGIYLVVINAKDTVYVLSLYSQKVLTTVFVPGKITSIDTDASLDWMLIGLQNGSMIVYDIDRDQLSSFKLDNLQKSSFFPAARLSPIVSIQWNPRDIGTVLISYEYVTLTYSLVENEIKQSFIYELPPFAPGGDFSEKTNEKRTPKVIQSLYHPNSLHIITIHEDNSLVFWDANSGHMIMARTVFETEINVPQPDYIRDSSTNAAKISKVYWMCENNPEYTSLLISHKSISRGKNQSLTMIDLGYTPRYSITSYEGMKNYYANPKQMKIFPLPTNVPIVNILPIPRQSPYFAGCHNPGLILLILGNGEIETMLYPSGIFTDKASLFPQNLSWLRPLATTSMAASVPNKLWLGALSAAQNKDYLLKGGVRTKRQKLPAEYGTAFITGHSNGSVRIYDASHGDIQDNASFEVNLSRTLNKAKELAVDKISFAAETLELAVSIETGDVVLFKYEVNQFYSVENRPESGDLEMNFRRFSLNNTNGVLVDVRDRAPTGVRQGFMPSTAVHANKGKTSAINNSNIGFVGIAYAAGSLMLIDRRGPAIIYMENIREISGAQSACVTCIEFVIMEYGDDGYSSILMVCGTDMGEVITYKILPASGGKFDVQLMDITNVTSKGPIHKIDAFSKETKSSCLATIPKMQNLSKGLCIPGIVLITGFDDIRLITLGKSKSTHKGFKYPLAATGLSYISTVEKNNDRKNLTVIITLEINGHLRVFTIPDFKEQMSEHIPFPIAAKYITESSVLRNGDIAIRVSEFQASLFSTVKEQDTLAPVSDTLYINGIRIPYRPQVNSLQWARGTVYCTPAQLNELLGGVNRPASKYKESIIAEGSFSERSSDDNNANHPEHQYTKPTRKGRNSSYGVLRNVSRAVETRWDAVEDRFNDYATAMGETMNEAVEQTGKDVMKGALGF

[1] = target: T2, Sro7 (wild type, full length) (S. cerevisiae, UniProt Q12038 1-1033); test: pull-down
T2 sequence: T1 sequence with K361D

binding result (Sro7-D361K): binds
binding result [1]: binds
B1: GST-Sec4 (wild type) (natural protein)
chain: MSGLRTVSASSGNGKSYDSIMKILLIGDSGVGKSCLLVRFVEDKFNPSFITTIGIDFKIKTVDINGKKVKLQLWDTAGQERFRTITTAYYRGAMGIILVYDVTDERTFTNIKQWFKTVNEHANDEAQLLLVGNKSDMETRVVTADQGEALAKELGIPFIESSAKNDDNVNEIFFTLAKLIQEKIDSNKLVGVGNGKEGNISINSGSGNSSKSNCC

binding result [1]: binds
B2: GST-Sec9 (full length) (natural protein)
chain: MGLKKFFKIKPPEEATPEQNKDTLMELGISVKNPSKKRKEKFAAYGKFANDKAEDKVYAPPGYEQYARPQDELEDLNASPLDANANEATAGSNRGSSGTQDLGNGAESNSMQDPYAIENDDYRYDDDPYARFQANKSNGRGSVNAAPYGDYGGGYNGTSLNSYNNDGPYSNQNTSNSWVNANGRNSLNHSNSTLNVGPSRQTRQPPVSTSTNSLSLDQRSPLANPMQEKRNPYADMNSYGGAYDSNTNRSSGTRQGSSKNANPYASMANDSYSNGNLNRSANPYSSRSVRQPQSQQAPMTYTPSFIASDEAARNSEVDLNEEPRTGEFDFEEVYADKSAENRAALDEPDLNAVMTNEDSIDLNASEVDHSSRQQQQQQWFMDEQQQQQQHFNATNNQYGDQRGYKTFEEIQKEEEARQQQEEDEAVDEIKQEIKFTKQSSVASTRNTLKMAQDAERAGMNTLGMLGHQSEQLNNVEGNLDLMKVQNKVADEKVAELKKLNRSILAVHVSNPFNSKRRRREREEQLKNRKIEEKLMREQTSQQLSQSTQRIEGAMNANNNISEVRERYQRKNVLEKAKRYQFENDEEDDEMELEIDRNLDQIQQVSNRLKKMALTTGKELDSQQKRLNNIEESTDDLDINLHMNTNRLAGIR
